From US20210261671A1 (HARPOON THERAPEUTICS, published 2021)

Experiments:
human FLT3 protein [1] = molecular target: T1, human FLT3 protein (human, UniProt P36888 27-541, limits assumed); assay: colorimetric ELISA, periplasmic extract
T1 construct: protein coated in the screening ELISA; also called ELISA FLT3
Text: (§1) Llamas were immunized with purified FLT3 protein expressed in Expi293 cells. A phage display library for expression of heavy variable antibody domains was constructed from circulating B cells isolated from the immunized llamas (See van der Linden, de Geus, Stok, Bos, van Wassenaar, Verrips, and Frenken. 2000. J Immunol Methods 240:185-195). Phage clones were screened for binding to FLT3 by expressing llama anti-FLT3 proteins in E. coli, preparing periplasmic extracts, and performing colorimetric ELISAs.

human FLT3 protein [2] = molecular target: T1, human FLT3 protein; assay: colorimetric ELISA, signal over control wells lacking FLT3
Text: as §1

Binder | ELISA FLT3 (absorbance) (human FLT3 protein [1]) | FLT3/control (human FLT3 protein [2]) [ratio]
FLL57 (VHH, llama anti-FLT3 variable domain; E. coli periplasmic extract) VHH: QVQLQESGGGLVQAGGSLRLSCAASGSTFSKNYIDWYRQAPGKQREWVAQITSGGNTHYEPSLKGRFTISRDNAKNTAYLQMNSLKPEDTAVYYCRILDYWGQGTQVTVSS | 1.4 | 9
FLL62 (VHH, llama anti-FLT3 variable domain; E. coli periplasmic extract) VHH: QVQLQESGGGLVQAGGSLRLSCAASGSTSSRNYIDWYRQAPGKQREWVAQITSGGNTHYEPSLKGRFTISRDNAKNTAYLQMNSLKPEDTAVYYCRILDYWGQGTQVTVSS | 0.5 | 5
FLL79 (VHH, llama anti-FLT3 variable domain; E. coli periplasmic extract) VHH: QVQLQESGGGLVQAGGSLRLSCSASGSTFSRNYIDWYRQAPGKQREWVAQITSGGNTHYEPSLKGRFTISRDNAKNTAYLQMNSLKPEDTAVYYCRILDYWGQGTQVTVSS | 0.6 | 4
FLL86 (VHH, llama anti-FLT3 variable domain; E. coli periplasmic extract) VHH: QVQLQESGGGLVQPGDPLRLSCAASGSTFSRNYIDWYRQAPGKQREWVAQITSGGNTHYEPSLKGRFTISRDNAKNTAYLQMNSLKPEDTAVYYCRILDYWGQGTQVTVSS | 1.9 | 15
FLL158 (VHH, llama anti-FLT3 variable domain; E. coli periplasmic extract) VHH: QVQLQESGGGLVQPGGSLRLSCAASGSTFGRNYIDWYRQAPGKQREWVAQITSGGNTHYEPSLKGRFTISRDNAKNTAYLQMNSLKPEDTAVYYCRILDYWGQGTQVTVSS | 2.1 | 17
FLL154 (VHH, llama anti-FLT3 variable domain; E. coli periplasmic extract) VHH: QVQLQESGGGLVQAGGSLRLSCAVSGRTFSGFGTGWFRQAPGKEREFVAAISWSGGRTHYADSVKGRFTISRDNAKNTVYLQMNSLKPEDTAVYYCAGQVARAYDGNWYSRGDYWGQGTQVTVSS | 4 | 8
FLL6 (VHH, llama anti-FLT3 variable domain; E. coli periplasmic extract) VHH: QVQLQESGGGLVQAGGSLRLSCAVSGRTFSGFGTGWFRQAPGKEREFVAAISWDGGRTHYADSVKGRFTISRDNAANTVYLQMNSLKPEDTAVYYCAGQVSRAYDSMWYGRDDYWGQGTQVTVSS | 3.8 | 16
FLL38 (VHH, llama anti-FLT3 variable domain; E. coli periplasmic extract) VHH: QVQLQESGGGLVQAGGSLRLSCAVSGRTFSGFGTGWFRQAPGKEREFVAAVSWSGGTTEIADSVKGRFTISRDNAKNTVYLQMSSLKPGDTAVYYCAGQVARAYDSRWYSRGDYWGQGTQVTVSS | 4 | 45
FLL74 (VHH, llama anti-FLT3 variable domain; E. coli periplasmic extract) VHH: QVQLQESGGGLVQAGGSLRLSCRFSGRTFSGFGTGWFRQAPGKEREFVAAISWAGGRTHYEDSVKGRFTISRDNAKNTVYLQMNSLKPEDTAVYYCAVQVSRAYDGIWYSGGDYWGQGTQVTVSS | 3.9 | 6
FLL83 (VHH, llama anti-FLT3 variable domain; E. coli periplasmic extract) VHH: QVQLQESGGGLVQAGGSLRLSCAVSGRTFSGFGTGWFRQAPGKEREFVAAISWSGGTTHYADSVKGRFTISRDNAENTVYLEMNSLKPEDTAVYICAGQVSRAYDSNWYSRDDYWGQGTQVTVSS | 3.8 | 35
FLL94 (VHH, llama anti-FLT3 variable domain; E. coli periplasmic extract) VHH: QVQLQESGGGLVQAGGSLRLSCAVSGRTFSGFGTGWFRQAPEKEREFVAAISWDGGRTHYADSVKGRFTISRDNAKNTVYLQMNSLKPEDTAIYYCAGQVARAYDTRWYSRGDYWGQGTQVTVSS | 4 | 5
FLL99 (VHH, llama anti-FLT3 variable domain; E. coli periplasmic extract) VHH: QVQLQESGGGLVQAGGSLRLSCAVSGRTFSGFGTGWFRQAPGKEREFVAAISWDGGRTHYADFVKGRFTISRDNAKNTVYLQMNSLKPEDTAVYYCAAQVARAYDSRWYSGGDYWGQGTQVTVSS | 3.7 | 13
FLL112 (VHH, llama anti-FLT3 variable domain; E. coli periplasmic extract) VHH: QVQLQESGGGLVQAGGSLRLSCAVSGRTFSGFGTGWFRQAPGKEREFVAAISWAGGRTHYEDSVKGRFTIHRDNAKNTVYLQMNSLKPEDTAVYYCAAQVSRAYDGIWYSGGDYWGQGTQVTVSS | 3.6 | 34
FLL142 (VHH, llama anti-FLT3 variable domain; E. coli periplasmic extract) VHH: QVQLQESGGGLVQAGGSLRLSCAVSGRTFSGFGTGWFRQAPGKEREFVAAISWDGGRTHYADFVKGRFTISRDNAKNTVYLQMNSLKPEDTAVYYCAAQVARAYDSKWYSGGDYWGQGTQVTVSS | 4 | 15
FLL143 (VHH, llama anti-FLT3 variable domain; E. coli periplasmic extract) VHH: QVQLQESGGGLVQAGGSLRLSCAVSGRTFSGFGTGWFRQAPGKEREFVAAISWVGGRTHYADSVKGRFTISRDNAKNTVYLQMNSLKPEDTAVYYCAAQVARAYDGNWYSGGDYWGQGTQVTVSS | 4 | 47
FLL168 (VHH, llama anti-FLT3 variable domain; E. coli periplasmic extract) VHH: QVQLQESGGGSVQAGGSLRLSCAFSGRTFSGFGTGWFRQAPEKEREFVAAISWDGGRTHYADSVKGRFTISRDNAKNTVYLQMDSLKPEDTAIYYCAAQVSRAYDGRWYSAVDYWGRGTQVTVSS | 4 | 28
FLL170 (VHH, llama anti-FLT3 variable domain; E. coli periplasmic extract) VHH: QVQLQESGGGLVQAGGSLRLSCAVSGRTFSGFGTGWFRQAPGKEREFVAAISWSGGTTHYADSVKGRFTISRDNAKNTVYLQMNSLKPEDTAVYYCAGQVARAYDSSWYSRGDYWGQGTQVTVSS | 4 | 38
FLL188 (VHH, llama anti-FLT3 variable domain; E. coli periplasmic extract) VHH: QVQLQESGGGLVQAGGSLGLSCAVSGRTFSGFGTGWFRQPPEKEREFVAAISWDGGRTHYADSVKGRFTISRDNAKNTVFLQMNSLKPEDTAVYYCAAQVARAYDSRWYSGGDYWGQGTQVTVSS | 4 | 51
FLL553 (VHH, llama anti-FLT3 variable domain; E. coli periplasmic extract) VHH: QVQLQESGGGLVQAGGSLRLSCAVSGRTFSGFGTGWFRQAPGKEREFVAAISWSGGTTHYADSVKGRFTISRDNAKNTVNLVYLQMNSLRPEDTAVYYCAGQVARAYDSNWYSRGDYWGQGTQVTVSS | 3.7 | 37
FLL40 (VHH, llama anti-FLT3 variable domain; E. coli periplasmic extract) VHH: QVQLQESGGGLVQAGGSLRLSCAVSGRTFSGFGTGWFRQAPGKEREFVAAISWSGGTTHYADSVKGRFTISRDNAKNTVSLVYLQMNSLKPDDTAVYYCAGQVARAYDSSWYSRGDYLGQGTQVTVSS | 4 | 21
FLL53 (VHH, llama anti-FLT3 variable domain; E. coli periplasmic extract) VHH: QVQLQESGGGLVQAGDSLRLSCAVSGRTFSGFGTGWFRQAPGKEREFVAAVSQSGGTTHYADSVKGRFTISRDNAKNTETLVYLQMNSLKPEDTAVYYCAGQVARAYDSSWYARGDYWGQGTQVTVSS | 3.9 | 17
FLL75 (VHH, llama anti-FLT3 variable domain; E. coli periplasmic extract) VHH: QVQLQESGGGLVQAGGSLRLSCAVSGRTFSGFGTGWFRQAPGKEREFVAAISWSGGTTHYADSVKGRFTISRDNAKNTVNLVYLQMNDLRPEDTAVYYCAGQVARAYDSNWYSRGDYWGQGTQVTVSS | 4 | 19
FLL84 (VHH, llama anti-FLT3 variable domain; E. coli periplasmic extract) VHH: QVQLQESGGGLVQAGGSLMVSCAASGGTFSSYATGWFRQVPGKEREFIAGISRSGGRTYYAESVKGRFTISRDNAKNTVYLQMNTLKPDDTAVYYCAAARYFTTSVVYTSGDDYDYWGQGTQVTVSS | 1.3 | 4
FLL8 (VHH, llama anti-FLT3 variable domain; E. coli periplasmic extract) VHH: QVQLQESGGGLVQVGGSLMVSCAASGGTFSSYATGWFRQVPGKEREFIAGISRNSGRTYYAESVKGRFTISRDNAKNTVYLQMNTLKPDDTAVYYCAAARYFTRDVVYTSGDDYDYWGQGTQVTVSS | 3.3 | 14
FLL41 (VHH, llama anti-FLT3 variable domain; E. coli periplasmic extract) VHH: QVQLQESGGGLVQLGDSLMVSCAASGGTFSSYATGWFRQVPGREREFIAGISRSGGRTYYAESVKGRFTISRDNAKNTVYLQMNTLKPDDTAVYYCAAARYFTTSVVYTSGDDYDYWGQGTQVTVSS | 0.8 | 5
FLL67 (VHH, llama anti-FLT3 variable domain; E. coli periplasmic extract) VHH: QVQLQESGGGLVQLGDSLMVSCAASGGTFSSYATGWFRQVPGKEREFIAGISRSGGRTYYAESVKGRFTISRDNAKNTVYLQMNTLKPDDTAVYYCAAARYFTTSVVYTSGDDYDYWGQGTQVTVSS | 2.7 | 12
FLL71 (VHH, llama anti-FLT3 variable domain; E. coli periplasmic extract) VHH: QVQLQESGGGLVQVGGSLMVSCAASGGTFSSYATGWFRQVPGKEREFIAGISRNSGRTYYAESVKGRFTISRDNAKNTVYLQMNTLKPDDTAVYYCAAARYFTRDAVYTSGDDYDYWGQGTQVTVSS | 1.9 | 9
FLL92 (VHH, llama anti-FLT3 variable domain; E. coli periplasmic extract) VHH: QVQLQESGGGLVQAGGSLMVSCAASGGTWSSYATGWFRQVPGKERELIAGISRSGGRTYYAESVKGRFTISRDNAKNTVYLQMNTLKSDDTAVYYCAAARYFTSSVVYTSGNDYDYWGQGTQVTVSS | 4 | 25
FLL102 (VHH, llama anti-FLT3 variable domain; E. coli periplasmic extract) VHH: QVQLQESGGGLVQAGGSLMVSCAASGGTWSSYATGWFRQVPGKERKLIAGISRSGGRTYYAESVKGRFTISRDNAKNTVYLQMNTLKPDDTAVYYCAAARYFTSSVVYTSGNDYDYWGQGTQVTVSS | 3.7 | 37
